In paper PMC4277623, “Synthesis and Preliminary Evaluation of a New ^99mTc Labeled Substance P Analogue as a Potential Tumor Imaging Agent” (Iranian Journal of Pharmaceutical Research : IJPR, 2015):
Where two headings read alike, the source gives them in different places.

Experiments:
U373MG tumor = assay: Biodistribution in tumor bearing nude mice; format: in vivo
Procedure: (§1) Male albino mice in a weight range of18-24 g were used for normal mice treatments and malenude mice (6 to 8 weeks old) were used for in-vivo tumor treatments. The mice were housed at controlled room temperature (25 °C) in a 12 h light/12 h dark schedule. They were kept in standard cages with free access to food and water except during the experiments. The nude mice were grown and kept in isolated sterile condition. All animal experiments were carried out in compliance with our institutional ethical guidelines.
(§2) U373MG cells were grown and harvested by trypsinization. Cells were washed twice with fresh RPMI medium containing 20% FBS and centrifuged for 5 min at 200 g. Pellets were resuspended in RPMI medium containing 20% FBS. A 100 µL suspension of 4 × 10^6 cells was subcutaneously injected on the right flank of each nude mouse. After four weeks, the size of inducted tumors was suitable for biodistribution study and mice were injected via the tail vein with radiolabeled peptide in two groups in the presence and absence of block. They sacrificed at 1 h and 4 h time points to assay the biodistribution. They were dissected and % ID/g of tissues was measured as described above. Finally, tumor-to-organ ratios were calculated.

[1] = Biodistribution in tumor bearing nude mice; format: in vivo; conditions: male, nude, mouse, iv, total radioactivity, mean ± SEM; for tissue uptake at 1 h: 1 h p.i.; for tissue uptake at 4 h: 4 h p.i.
Procedure: as §1, §2

[2] = Protein binding in human serum; format: in vitro ADME; conditions: fresh human serum, 2 h incubation; ethanol precipitation, centrifugation; γ-counter
Procedure: For protein binding estimation, freshly labeled peptide solution was filtered through a […] and a 100 μL aliquot of filtrate was incubated in 1ml fresh human serum for 2 h. After ethanol treatment and centrifugation (4000 g, 5 min, 4 °C), all the supernatant was completely removed. A slight wash with 1x phosphate-buffered saline (PBS) was done on the surface of the sediment and the eluate was added to the removed supernatant. The total activity of the supernatant and the activity of the sediment were measured by well-type NaI γ-counter to determine the percentage of radio peptide bound or transferred to albumin and other serum proteins.

U373MG cells = assay: Internalization and surface binding in U373MG cells; format: cell-based, human; conditions: for total cell uptake: 37 °C, 2.5 pmol peptide per well, % of total activity per well, triplicates; for receptor specific cell uptake: total minus nonspecific (10000 fold excess unlabeled SP)
Procedure: All the main cell studies were performed on U373MG human Glioblastoma cell lines. Cells were cultured in DMEM was supplemented with L-glutamine, antibiotics (penicillin, streptomycine, gentamycine) and10% FBS. They were grown in culture until a sufficient number of cells were available. At proper times, cells were detached by trypsin-EDTA (0.25% and 0.02%) from the culture flask and diluted with fresh medium to start a new culture or the cell line tests.
Internalization of the ^99mTclabeled HYNIC-Tyr^8-Met(O)^11-SP was studied as previously described method([32], [33]) with some modifications. In brief, newly detached U373MG cells were seeded in six-well plates 12 h before the experiment. Their culture medium was replaced by 1.2 mL of previously warmed fresh medium and cells were allowed to adjust to the medium for 1 h at 37 °C, 5% CO2. In order to determine nonspecific internalization, one line of wells per plate was incubated with 10000 fold excess of unlabeled SP (25 nmol peptide in 150 μL PBS per well) at 37°C/5% CO2 for 15 min to block NK1Rs. Then about 150kBq (2.5 pmol peptide) in 150 μL diluted solution of freshly radiolabeled peptide was added to each of the wells and were incubated (in triplicates) for 0.5, 1, 2 and 4 h at 37 °C/5% CO2, respectively. As the final volume of blocked wells was 1.5 mL, the content volume of unblocked wells was adjusted to 1.5 mL by adding 150 μL PBS per well. At each time point, radioactive media were aspirated and wells were washed twice with cold PBS (1x, pH 7.2) to remove free radio peptides. After that, cells were treated with 1 mLGly buffer (0.2M, pH adjusted to 2.8 with 1 M HCl) at room temperature for 5 min (twice) to remove cell-surface bound radio peptide. Finally, the cells were detached from the plates by three steps incubation with 1N NaOH at room temperature for 5 min to determine the internalized radio peptide. All consequent fractions were measured with a NaI γ-counter and results were expressed as percentage of total activity per well (free + cell-surface bound + internalized). Nonspecific accumulations were subtracted from totals to determine the specific accumulations.

[3] = U373MG tumor, U373MG tumor, blocked tumor bearing nude mice (excess SP), P< 0.01 vs nonblocked, read-out: %ID/g Tumor
[4] = blood, Blood, blocked tumor bearing nude mice (excess SP), read-out: %ID/g Blood
[5] = bone, Bone, blocked tumor bearing nude mice (excess SP), read-out: %ID/g Bone
[6] = bone, Bone, tumor bearing nude mice, i.v., n=3, read-out: %ID/g Bone
[7] = heart, Heart, blocked tumor bearing nude mice (excess SP), read-out: %ID/g Heart
[8] = heart, Heart, tumor bearing nude mice, i.v., n=3, read-out: %ID/g Heart
[9] = kidneys, Kidneys, blocked tumor bearing nude mice (excess SP), read-out: %ID/g Kidneys
[10] = kidneys, Kidneys, tumor bearing nude mice, i.v., n=3, read-out: %ID/g Kidneys
[11] = muscle, Muscle, blocked tumor bearing nude mice (excess SP), read-out: %ID/g Muscle
[12] = muscle, Muscle, tumor bearing nude mice, i.v., n=3, read-out: %ID/g Muscle
[13] = salivary gland, Salivary G., blocked tumor bearing nude mice (excess SP), read-out: %ID/g Salivary G.
[14] = salivary gland, Salivary G., tumor bearing nude mice, i.v., n=3, read-out: %ID/g Salivary G.
[15] = spleen, Spleen, blocked tumor bearing nude mice (excess SP), read-out: %ID/g Spleen
[16] = spleen, Spleen, tumor bearing nude mice, i.v., n=3, read-out: %ID/g Spleen
[17] = stomach, Stomach, blocked tumor bearing nude mice (excess SP), read-out: %ID/g Stomach
[18] = stomach, Stomach, tumor bearing nude mice, i.v., n=3, read-out: %ID/g Stomach

In the case of `CC(C)C[C@H](NC(=O)CNC(=O)[C@H](Cc1ccc(O)cc1)NC(=O)[C@H](Cc1ccccc1)NC(=O)[C@H](CCC(N)=O)NC(=O)[C@H](CCC(N)=O)NC(=O)[C@@H]1CCCN1C(=O)[C@H](CCCCN)NC(=O)[C@@H]1CCCN1C(=O)[C@H](CCCNC(=N)N)NC(=O)c1ccc(NN)nc1)C(=O)N[C@@H](CC[S+](C)[O-])C(N)=O` (stereo partly shown) [^99mTc-HYNIC-Tyr^8-Met(O)^11-SP, metal not drawn], the “D% Blood” value (U373MG tumor; Blood, decreased percent of %ID/g between 1 h and 4 h, nude mice) is reported as 69%, the “%ID/g Blood” value (U373MG tumor; Blood, tumor bearing nude mice, 1 h p.i., i.v., mean ± SEM, n=3) is reported as 1.32±0.16 %ID/g and the “D% Bone” value (U373MG tumor; Bone, decreased percent of %ID/g between 1 h and 4 h, nude mice) is reported as 48%. The “D% Heart” value (U373MG tumor; Heart, decreased percent of %ID/g between 1 h and 4 h, nude mice) was 68%, the “D% Kidneys” value (U373MG tumor; Kidneys, decreased percent of %ID/g between 1 h and 4 h, nude mice) was 34% and the “%ID/g L. intestine” value (U373MG tumor; L. intestine, blocked tumor bearing nude mice (excess SP), 1 h p.i., mean ± SEM, P< 0.01 vs nonblocked) was 0.73±0.14 %ID/g. For the same compound, the “%ID/g L. intestine” value (U373MG tumor; L. intestine, blocked tumor bearing nude mice (excess SP), 4 h p.i., mean ± SEM, P< 0.01 vs nonblocked) was 0.70±0.16 %ID/g, the “D% L. intestine” value (U373MG tumor; L. intestine, decreased percent of %ID/g between 1 h and 4 h, nude mice) was 3% and the “%ID/g L. intestine” value (U373MG tumor; L. intestine, tumor bearing nude mice, 1 h p.i., i.v., mean ± SEM, n=3) was 1.89±0.15 %ID/g. The “%ID/g L. intestine” value (U373MG tumor; L. intestine, tumor bearing nude mice, 4 h p.i., i.v., mean ± SEM, n=3) was 1.83±0.06 %ID/g, the “%ID/g Liver” value (U373MG tumor; Liver, blocked tumor bearing nude mice (excess SP), 1 h p.i., mean ± SEM) was 0.96±0.10 %ID/g and the “%ID/g Liver” value (U373MG tumor; Liver, blocked tumor bearing nude mice (excess SP), 4 h p.i., mean ± SEM) was 0.50±0.08 %ID/g. For the same compound, the “D% Liver” value (U373MG tumor; Liver, decreased percent of %ID/g between 1 h and 4 h, nude mice) was 37%, the “%ID/g Liver” value (U373MG tumor; Liver, tumor bearing nude mice, 1 h p.i., i.v., mean ± SEM, n=3) was 0.86±0.09 %ID/g and the “%ID/g Liver” value (U373MG tumor; Liver, tumor bearing nude mice, 4 h p.i., i.v., mean ± SEM, n=3) was 0.54±0.07 %ID/g. For the same compound, the “%ID/g Lung” value (U373MG tumor; Lung, blocked tumor bearing nude mice (excess SP), 1 h p.i., mean ± SEM) was 1.53±0.25 %ID/g, the “%ID/g Lung” value (U373MG tumor; Lung, blocked tumor bearing nude mice (excess SP), 4 h p.i., mean ± SEM) was 0.67±0.09 %ID/g and the “D% Lung” value (U373MG tumor; Lung, decreased percent of %ID/g between 1 h and 4 h, nude mice) was 48%. For the same compound, the “%ID/g Lung” value (U373MG tumor; Lung, tumor bearing nude mice, 1 h p.i., i.v., mean ± SEM, n=3) was 1.47±0.15 %ID/g, the “%ID/g Lung” value (U373MG tumor; Lung, tumor bearing nude mice, 4 h p.i., i.v., mean ± SEM, n=3) was 0.76±0.12 %ID/g and the “D% Muscle” value (U373MG tumor; Muscle, decreased percent of %ID/g between 1 h and 4 h, nude mice) was 84%. For the same compound, the “%ID/g S. intestine” value (U373MG tumor; S. intestine, blocked tumor bearing nude mice (excess SP), 1 h p.i., mean ± SEM, P< 0.01 vs nonblocked) was 0.83±0.12 %ID/g, the “%ID/g S. intestine” value (U373MG tumor; S. intestine, blocked tumor bearing nude mice (excess SP), 4 h p.i., mean ± SEM, P< 0.05 vs nonblocked) was 0.36±0.09 %ID/g and the “D% S. intestine” value (U373MG tumor; S. intestine, decreased percent of %ID/g between 1 h and 4 h, nude mice) was 70%. For the same compound, the “%ID/g S. intestine” value (U373MG tumor; S. intestine, tumor bearing nude mice, 1 h p.i., i.v., mean ± SEM, n=3) was 2.57±0.34 %ID/g, the “%ID/g S. intestine” value (U373MG tumor; S. intestine, tumor bearing nude mice, 4 h p.i., i.v., mean ± SEM, n=3) was 0.78±0.07 %ID/g and the “D% Salivary G.” value (U373MG tumor; Salivary G., decreased percent of %ID/g between 1 h and 4 h, nude mice) was 66%. For the same compound, the “D% Stomach” value (U373MG tumor; Stomach, decreased percent of %ID/g between 1 h and 4 h, nude mice) was 61%, the “D% Tumor” value (U373MG tumor; U373MG tumor, decreased percent of %ID/g between 1 h and 4 h, nude mice) was 62% and the “%ID/g Tumor” value (U373MG tumor; U373MG tumor, tumor bearing nude mice, 1 h p.i., i.v., mean ± SEM, n=3) was 3.36±0.26 %ID/g. It also gave a tissue uptake at 1 h [1, 3] of 1.36 ± 0.19 %ID/g, a tissue uptake at 4 h [1, 3] of 0.54 ± 0.08 %ID/g and a tissue uptake at 4 h ([1]; U373MG tumor, U373MG tumor, tumor bearing nude mice, i.v., n=3, read-out: %ID/g Tumor) of 1.26 ± 0.11 %ID/g. The tissue uptake at 1 h [1, 4] was 1.7 ± 0.14 %ID/g, the tissue uptake at 4 h [1, 4] was 0.52 ± 0.15 %ID/g and the tissue uptake at 4 h ([1]; blood, Blood, tumor bearing nude mice, i.v., n=3, read-out: %ID/g Blood) was 0.41 ± 0.12 %ID/g. For the same compound, the tissue uptake at 1 h [1, 5] was 0.66 ± 0.07 %ID/g, the tissue uptake at 4 h [1, 5] was 0.31 ± 0.03 %ID/g and the tissue uptake at 1 h [1, 6] was 0.52 ± 0.06 %ID/g. The tissue uptake at 4 h [1, 6] was 0.27 ± 0.03 %ID/g, the tissue uptake at 1 h [1, 7] was 0.98 ± 0.09 %ID/g and the tissue uptake at 4 h [1, 7] was 0.23 ± 0.02 %ID/g. It also gave a tissue uptake at 1 h [1, 8] of 0.78 ± 0.11 %ID/g, a tissue uptake at 4 h [1, 8] of 0.25 ± 0.02 %ID/g and a tissue uptake at 1 h [1, 9] of 20.2 ± 0.61 %ID/g. It also gave a tissue uptake at 4 h [1, 9] of 13.1 ± 0.76 %ID/g, a tissue uptake at 1 h [1, 10] of 19.3 ± 0.65 %ID/g and a tissue uptake at 4 h [1, 10] of 12.8 ± 0.52 %ID/g. For the same compound, the tissue uptake at 1 h [1, 11] was 0.73 ± 0.09 %ID/g, the tissue uptake at 4 h [1, 11] was 0.09 ± 0.01 %ID/g and the tissue uptake at 1 h [1, 12] was 0.51 ± 0.06 %ID/g. For the same compound, the tissue uptake at 4 h [1, 12] was 0.08 ± 0.01 %ID/g, the tissue uptake at 1 h [1, 13] was 0.95 ± 0.06 %ID/g and the tissue uptake at 4 h [1, 13] was 0.41 ± 0.03 %ID/g. The tissue uptake at 1 h [1, 14] was 1 ± 0.09 %ID/g, the tissue uptake at 4 h [1, 14] was 0.33 ± 0.04 %ID/g and the tissue uptake at 1 h [1, 15] was 0.34 ± 0.04 %ID/g. It also gave a tissue uptake at 4 h [1, 15] of 0.26 ± 0.03 %ID/g, a tissue uptake at 1 h [1, 16] of 0.46 ± 0.07 %ID/g and a tissue uptake at 4 h [1, 16] of 0.32 ± 0.03 %ID/g. It also gave a tissue uptake at 1 h [1, 17] of 0.63 ± 0.13 %ID/g, a tissue uptake at 4 h [1, 17] of 0.26 ± 0.05 %ID/g and a tissue uptake at 1 h [1, 18] of 0.81 ± 0.12 %ID/g. It also gave a tissue uptake at 4 h [1, 18] of 0.32 ± 0.03 %ID/g, a fraction unbound at 2 h [2] of 0.56 and a total cell uptake (U373MG cells; 0.5 h) of 2.86 ± 0.10%. The “receptor specific cell uptake” value (U373MG cells; 0.5 h) was 1.71%, the total cell uptake (U373MG cells; 4 h) was 4.91 ± 0.22% and the “receptor specific cell uptake” value (U373MG cells; 4 h) was 2.98%. The “ratio of specific uptake to total uptake” value (U373MG cells; over 0.5-4 h) was 60.21 ± 1.19%.
